Laboratory results published in patent US20220064329A1 (Novo Nordisk, published 2022).

What was measured:
Test in all cases: SPR, Biacore T200, 25 C; FVII(a) variant captured on anti-Gla Ab 4F6, mAb0842(OA) injected
FVII(a) variant S119A = target: T1, FVII(a) variant S119A (human, UniProt P08709 61-466)
T1 construct: hFVII alanine variant in cell culture supernatant
T1 sequence: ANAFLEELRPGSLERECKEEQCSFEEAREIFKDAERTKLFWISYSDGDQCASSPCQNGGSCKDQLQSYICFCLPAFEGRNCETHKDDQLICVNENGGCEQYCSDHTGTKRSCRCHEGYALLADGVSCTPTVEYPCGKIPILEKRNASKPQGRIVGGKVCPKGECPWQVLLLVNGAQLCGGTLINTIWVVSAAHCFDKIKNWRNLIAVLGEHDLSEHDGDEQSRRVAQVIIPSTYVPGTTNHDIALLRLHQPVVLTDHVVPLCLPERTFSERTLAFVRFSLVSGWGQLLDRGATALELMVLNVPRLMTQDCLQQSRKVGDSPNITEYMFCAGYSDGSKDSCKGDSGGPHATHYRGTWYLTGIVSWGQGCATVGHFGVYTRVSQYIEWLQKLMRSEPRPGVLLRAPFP
Description: (§1) The running buffer was prepared by diluting 10-fold the 10×HBS-P buffer (supplied by GE Healthcare) and supplemented with 1 mg/ml BSA and 5 mM CaCl2 to give 10 mM HEPES, 150 mM NaCl, 0.05% v/v Polysorbate 20, pH 7.4, 5 mM CaCl2, 1 mg/ml bovine serum albumin (BSA). […] Regeneration of the chip was achieved using 10 mM HEPES, 150 mM NaCl, 20 mM EDTA, 0.05 v/v Polysorbate 20, pH 7.4. Binding data were analysed according to a 1:1 Kinetic model and steady state analysis using BiaEvaluation 4.1 supplied by the manufacturer (Biacore AB, Uppsala, Sweden). Wherever possible, ka, kd and KD values from 1:1 kinetic fitting model are reported. […] An amino acid residue is considered a hot-spot residue if substitution of that amino acid residue with alanine results in an affinity reduction of ten (10) fold or more relative to the wild type.

FVII(a) variant N184A = target: T2, FVII(a) variant N184A (human, UniProt P08709 61-466)
T2 construct: hFVII alanine variant in cell culture supernatant
T2 sequence: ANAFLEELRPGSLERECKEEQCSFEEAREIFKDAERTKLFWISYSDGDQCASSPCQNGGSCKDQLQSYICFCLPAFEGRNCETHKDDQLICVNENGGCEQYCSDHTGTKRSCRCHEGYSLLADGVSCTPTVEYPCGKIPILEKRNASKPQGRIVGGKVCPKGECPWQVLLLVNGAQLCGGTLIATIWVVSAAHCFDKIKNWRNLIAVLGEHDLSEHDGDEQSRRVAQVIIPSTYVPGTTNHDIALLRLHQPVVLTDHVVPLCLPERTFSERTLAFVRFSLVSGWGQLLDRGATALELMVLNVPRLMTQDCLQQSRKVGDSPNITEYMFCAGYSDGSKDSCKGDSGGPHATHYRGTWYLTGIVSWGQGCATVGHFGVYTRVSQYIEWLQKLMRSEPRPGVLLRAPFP
Description: as §1

FVII(a) variant P251A = target: T3, FVII(a) variant P251A (human, UniProt P08709 61-466)
T3 construct: hFVII alanine variant in cell culture supernatant
T3 sequence: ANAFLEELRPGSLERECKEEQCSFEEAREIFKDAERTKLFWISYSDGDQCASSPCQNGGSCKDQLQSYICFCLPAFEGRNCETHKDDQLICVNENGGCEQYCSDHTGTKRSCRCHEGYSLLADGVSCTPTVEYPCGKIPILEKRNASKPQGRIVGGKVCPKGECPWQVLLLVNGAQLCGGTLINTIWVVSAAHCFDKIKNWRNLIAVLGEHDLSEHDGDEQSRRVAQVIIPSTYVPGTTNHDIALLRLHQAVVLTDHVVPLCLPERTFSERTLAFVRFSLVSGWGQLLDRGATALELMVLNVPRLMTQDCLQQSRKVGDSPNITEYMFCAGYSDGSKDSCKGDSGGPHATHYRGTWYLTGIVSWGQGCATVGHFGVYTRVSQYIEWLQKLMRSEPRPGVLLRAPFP
Description: as §1

FVII(a) variant G117A = target: T4, FVII(a) variant G117A (human, UniProt P08709 61-466)
T4 construct: hFVII alanine variant in cell culture supernatant
T4 sequence: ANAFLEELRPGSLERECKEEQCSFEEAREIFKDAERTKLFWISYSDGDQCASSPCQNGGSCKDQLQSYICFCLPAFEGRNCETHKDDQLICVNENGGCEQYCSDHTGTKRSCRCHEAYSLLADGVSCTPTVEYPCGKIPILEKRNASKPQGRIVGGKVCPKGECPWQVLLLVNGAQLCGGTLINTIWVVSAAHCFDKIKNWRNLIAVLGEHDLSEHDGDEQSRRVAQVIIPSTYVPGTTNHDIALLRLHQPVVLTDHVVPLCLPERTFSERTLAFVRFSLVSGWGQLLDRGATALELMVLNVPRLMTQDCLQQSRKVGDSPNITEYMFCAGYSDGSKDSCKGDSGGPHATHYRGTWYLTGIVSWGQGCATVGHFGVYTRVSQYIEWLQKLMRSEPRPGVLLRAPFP
Description: as §1

FVII(a) variant Y118A = target: T5, FVII(a) variant Y118A (human, UniProt P08709 61-466)
T5 construct: hFVII alanine variant in cell culture supernatant
T5 sequence: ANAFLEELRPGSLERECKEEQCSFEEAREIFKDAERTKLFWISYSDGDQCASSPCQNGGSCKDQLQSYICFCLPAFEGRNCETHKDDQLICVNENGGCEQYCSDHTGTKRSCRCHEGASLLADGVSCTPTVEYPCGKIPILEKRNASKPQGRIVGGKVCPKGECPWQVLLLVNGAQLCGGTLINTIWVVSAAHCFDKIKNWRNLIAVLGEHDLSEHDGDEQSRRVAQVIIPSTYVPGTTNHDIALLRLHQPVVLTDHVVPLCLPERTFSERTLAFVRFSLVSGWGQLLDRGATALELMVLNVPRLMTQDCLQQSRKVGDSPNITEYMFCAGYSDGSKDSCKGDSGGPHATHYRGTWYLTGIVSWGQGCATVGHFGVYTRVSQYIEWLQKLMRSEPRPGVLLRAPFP
Description: as §1

Kd (FVII(a) variant S119A): 0.31 nM
Kd (FVII(a) variant N184A): 1.91 nM
Kd (FVII(a) variant P251A): 0.85 nM
Kd (FVII(a) variant G117A): 0.31 nM
Kd (FVII(a) variant Y118A): 1.48 nM
B1: mAb0842(OA) (antibody, human IgG4 S228P, kappa)
heavy: QVQLQESGPGLVKPSQTLSLTCTVSGYSISSDSAWSWIRQPPGKGLEWIGYIQYSGSTNYNPSLKSRVTISRDTSKNQFSLKLSSVTAADTAVYYCARSVNYYGNSFAVGYWGQGTLVTVSSASTKGPSVFPLAPCSRSTSESTAALGCLVKDYFPEPVTVSWNSGALTSGVHTFPAVLQSSGLYSLSSVVTVPSSSLGTKTYTCNVDHKPSNTKVDKRVESKYGPPCPPCPAPEFLGGPSVFLFPPKPKDTLMISRTPEVTCVVVDVSQEDPEVQFNWYVDGVEVHNAKTKPREEQFNSTYRVVSVLTVLHQDWLNGKEYKCKVSNKGLPSSIEKTISKAKGQPREPQVYTLPPSQEEMTKNQVSLSCAVKGFYPSDIAVEWESNGQPENNYKTTPPVLDSDGSFFLVSRLTVDKSRWQEGNVFSCSVMHEALHNHYTQKSLSLSLGK
light: EIVLTQSPATLSLSPGERATLSCRASQGISDYLHWYQQKPGEAPRLLIKYTSQPATGIPARFSGSGSGTDFTLTISSLEPEDFAVYYCQNGHSFPLTFGQGTKLEIKRTVAAPSVFIFPPSDEQLKSGTASVVCLLNNFYPREAKVQWKVDNALQSGNSQESVTEQDSKDSTYSLSSTLTLSKADYEKHKVYACEVTHQGLSSPVTKSFNRGEC
chain: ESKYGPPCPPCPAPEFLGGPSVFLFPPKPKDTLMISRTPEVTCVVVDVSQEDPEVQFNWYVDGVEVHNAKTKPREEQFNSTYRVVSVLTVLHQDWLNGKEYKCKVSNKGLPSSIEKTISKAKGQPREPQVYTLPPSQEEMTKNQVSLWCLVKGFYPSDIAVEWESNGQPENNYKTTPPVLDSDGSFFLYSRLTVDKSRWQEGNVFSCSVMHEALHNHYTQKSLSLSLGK
notes: also called monovalent humanized 11F2 antibody; one-armed anti-FVII(a) antibody
